In patent US20150080315A1:

Key:
[1] = target: HDAC complex / nucleosome remodeling and deacetylase (NuRD) complex in SNU-398 nuclear extracts; assay: cell-based or functional assay
[2] = target: HDAC complex / nucleosome remodeling and deacetylase (NuRD) complex in SNU-398 nuclear extracts; assay: fluorescence polarization competition; unlabeled peptide displaces FITC-labeled wild type peptide from complexes in SNU-398 nuclear extracts

engraftment of human AML cells treated with wild type peptide in NSG mice [1] | IC50 [2] | Molecule
0.5% |  | endogenous SALL4 (SNU-398 cells) (from UniProt Q9UJQ4 1-1053)
 | 5 µM | MSRRKQAKPQHI [wild type 12-AA SALL4 peptide (…), unlabeled]
